{
  "source": "patent US20120282285",
  "key": {"[1]": {"biological_target": "mannose-binding lectin (MBL), P11226", "sequence (P11226 21-248)": "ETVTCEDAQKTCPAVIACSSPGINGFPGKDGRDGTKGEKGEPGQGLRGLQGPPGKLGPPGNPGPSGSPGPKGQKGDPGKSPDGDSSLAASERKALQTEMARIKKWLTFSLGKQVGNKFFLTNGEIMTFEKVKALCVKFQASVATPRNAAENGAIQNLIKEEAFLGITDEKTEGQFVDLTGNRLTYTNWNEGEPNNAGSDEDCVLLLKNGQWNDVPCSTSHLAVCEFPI"}},
  "data": [
    {"protein": "MBL-Associated Serine Protease-2 (MASP-2) (protein) TPLGPKWPEPVFGRLASPGFPGEYANDQERRWTLTAPPGYRLRLYFTHFDLELSHLCEYDFVKLSSGAKVLATLCGQESTDTERAPGKDTFYSLGSSLDITFRSDYSNEKPFTGFEAFYAAEDIDECQVAPGEAPTCDHHCHNHLGGFYCSCRAGYVLHRNKRTCSALCSGQVFTQRSGELSSPEYPRPYPKLSSCTYSISLEEGFSVILDFVESFDVETHPETLCPYDFLKIQTDREEHGPFCGKTLPHRIETKSNTVTITFVTDESGDHTGWKIHYTSTAQPCPYPMAPPNGHVSPVQAKYILKDSFSIFCETGYELLQGHLPLKSFTAVCQKDGSWDRPMPACSIVDCGPPDDLPSGRVEYITGPGVTTYKAVIQYSCEETFYTMKVNDGKYVCEADGFWTSSKGEKSLPVCEPVCGLSARTTGGRIYGGQKAKPGDFPWQVLILGGTTAAGALLYDNWVLTAAHAVYEQKHDASALDIRMGTLKRLSPHYTQAWSEAVFIHEGYTHDAGFDNDIALIKLNNKVVINSNITPICLPRKEAESFMRTDDIGTASGWGLTQRGFLARNLMYVDIPIVDHQKCTAAYEKPPYPRGSVTANMLCAGLESGGKDSCRGDSGGALVFLDSETERWFVGGIVSWGSMNCGEAGQYGVYTKVINYIPWIENIISDF", "values": [
      {"measurement": "C4 deposition (OD490-650nm), mannan/rMBL with MBL deficient serum", "setting": "[1]", "value": "Application of rMASP-2 resulted in a strong positive dose dependent enhancement of the C4 deposition via both the Ficolin-3 and MBL activation pathways (FIGS. 25B and 25E)"},
      {"measurement": "complement activation (C3 and C4)", "setting": "[1]", "value": "MASP-2 were able to strongly activate both the C3 and C4 complement proteins"},
      {"measurement": "C4 deposition (OD490-650nm), AcBSA/rFicolin-3 with Ficolin-3 deficient serum", "setting": "Ficolin-3, O75636", "value": "Application of rMASP-2 resulted in a strong positive dose dependent enhancement of the C4 deposition via both the Ficolin-3 and MBL activation pathways (FIGS. 25B and 25E)"}
    ]},
    {"protein": "MBL-Associated Serine Protease-1 (MASP-1) (protein) HTVELNNMFGQIQSPGYPDSYPSDSEVTWNITVPDGFRIKLYFMHFNLESSYLCEYDYVKVETEDQVLATFCGRETTDTEQTPGQEVVLSPGSFMSITFRSDFSNEERFTGFDAHYMAVDVDECKEREDEELSCDHYCHNYIGGYYCSCRFGYILHTDNRTCRVECSDNLFTQRTGVITSPDFPNPYPKSSECLYTIELEEGFMVNLQFEDIFDIEDHPEVPCPYDYIKIKVGPKVLGPFCGEKAPEPISTQSHSVLILFHSDNSGENRGWRLSYRAAGNECPELQPPVHGKIEPSQAKYFFKDQVLVSCDTGYKVLKDNVEMDTFQIECLKDGTWSNKIPTCKIVDCRAPGELEHGLITFSTRNNLTTYKSEIKYSCQEPYYKMLNNNTGIYTCSAQGVWMNKVLGRSLPTCLPVCGLPKFSRKLMARIFNGRPAQKGTTPWIAMLSHLNGQPFCGGSLLGSSWIVTAAHCLHQSLDPEDPTLRDSDLLSPSDFKIILGKHWRLRSDENEQHLGVKHTTLHPQYDPNTFENDVALVELLESPVLNAFVMPICLPEGPQQEGAMVIVSGWGKQFLQRFPETLMEIEIPIVDHSTCQKAYAPLKKKVTRDMICAGEKEGGKDACAGDSGGPMVTLNRERGQWYLVGTVSWGDDCGKKDRYGVYSYIHHNKDWIQRVTGVRN", "values": [
      {"measurement": "complement activation (C3 and C4)", "setting": "[1]", "value": "MASP-1 were able to activate both the C3 and C4 complement proteins"}
    ]}
  ]
}
